# System: G protein βγ subunits
substance,measurement,value
β-adrenergic receptor kinase,rhodopsin phosphorylation in the presence or absence of 100 nM G protein βγ subunits,βARK is significantly activated in the presence of G protein βγ subunits

# From patent publication US20020034767
